Measured values taken from the supplement of paper PMC12764529.
± gives the half width of the 95% confidence interval.

Columns and labels:
[1] = folding stability dG unfold from trypsin proteolysis; higher = more stable
Method in brief: (§1)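 Bayesian fitting of sequencing counts gave K50 for each design. Unfolding free energy followed by setting this against a sequence-predicted unfolded-state K50 and a shared folded-state K50, either per protease or with trypsin and chymotrypsin combined. The designs, under 80 residues and lacking cysteine, were digested in a PA-tagged cDNA display format at 11 threefold-diluted protease concentrations and without protease, and only those with AlphaFold2 dimer inter-PAE above 15 were kept.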

[2] = folding stability dG unfold (combined trypsin and chymotrypsin); higher = more stable
Method in brief: as §1

[3] = folding stability dG unfold from chymotrypsin proteolysis; higher = more stable
Method in brief: as §1

Sequence | folding stability dG unfold [1] | folding stability dG unfold [2] | folding stability dG unfold [3]
SAGGSASVEVSVEEKDGTLTVTVTVEVDGKLVTVTVTLTLPPPPPLSAEELEKAREAEKEGKTVEVSAGGSA [r15_631_TrROS_Hall] | 1.24 ± 0.12 kcal/mol | 2.49 ± 0.11 kcal/mol | 2.77 ± 0.16 kcal/mol
SAGGSASVKVEETVEFLPGGVVKTTTRTFFPDGTVTTTDTVTALPPVPVYDISSPENLSPALERLASAGGSA [r15_1018_JUSTAS] | 0.543 ± 0.028 kcal/mol | 0.909 ± 0.052 kcal/mol | 1.16 ± 0.026 kcal/mol
SAGGSASVTRMIQIPPGDPNMSIEEAIEKIKIYLPNGKPVTIEIDRIWPDPNRYFFMITIKDGKPVSAGGSA [r15_331_TrROS] | 1.21 ± 0.088 kcal/mol | 1.86 ± 0.15 kcal/mol | 2.28 ± 0.13 kcal/mol
SAGGSATIEEIANMPAEEIAQEHGMEVKDVDIERVPNGTITVEVEYEPPDGKKHKHTFQIKIDEGQSAGGSA [r15_805_TrROS] | 0.089 ± 0.1 kcal/mol | 0.284 ± 0.2 kcal/mol | 0.251 ± 0.11 kcal/mol
SAGGSATLTLPEDVVKEVFTAKVGDKEYRPVVFRSPDDEWVLVLVLRRDPNGNTSAVAALLPKDAVSAGGSA [r15_986_TrMRF] | 1.49 ± 0.047 kcal/mol | 1.64 ± 0.13 kcal/mol | 1.8 ± 0.16 kcal/mol
SAGGSATSIEYESPGVVETVSFTREPDGTLTVTVTVREPNGPVLKTLPTTETLPPDAGVTASVPLPSAGGSA [r15_950_JUSTAS] | 0.0919 ± 0.16 kcal/mol | 0.529 ± 0.18 kcal/mol | 0.921 ± 0.13 kcal/mol
SAGGSATVEVATEPDGTVTVTTLETDPAEPRGTVTTTTVTVTTEPTPEPFLSSSTTTTTTATAPAPSAGGSA [r15_438_JUSTAS] | 0.138 ± 0.048 kcal/mol | -0.0573 ± 0.059 kcal/mol | -0.291 ± 0.075 kcal/mol
SAGGSAVILIPIPPDDPNFWEMIKDFQEEGKPVIIRNPEGEWMVFKPNGPVKPVDSPEQLLEAGITSAGGSA [r15_94_TrROS] | 1.03 ± 0.074 kcal/mol | 1.04 ± 0.18 kcal/mol | 0.994 ± 0.16 kcal/mol
SAGGSAVPTVRATFRYPDGLVAELEVPVLPDGTPRVVLRVGGVEREVSLEELARLPPEFELVSVDPSAGGSA [r2_431_TrMRF] | 0.517 ± 0.073 kcal/mol | 0.826 ± 0.072 kcal/mol | 0.996 ± 0.087 kcal/mol
SAGGSAVTVVTVELTSPGSTHTITIPASEVEGLSLEEIEARLKALPEVSEITLTRSELPPLNPSLASAGGSA [r2_282_JUSTAS] | 0.788 ± 0.042 kcal/mol | 0.802 ± 0.046 kcal/mol | 0.752 ± 0.012 kcal/mol
SAGGSAWEFVKEIAKELQEKHPGYQVNVDVEPQRNPENDRRYIRIWIHVQDKNGEIRRTWEIMIPFSAGGSA [r15_1048_TrROS] | 3.22 ± 0.053 kcal/mol | 3.44 ± 0.12 kcal/mol | 3.461 ± 0.018 kcal/mol
SAGGSAWMTLEEFIKEAAKNFPPGREKEIWIRHPGYVFKIDIRVTGPGQVKIKIDKIVPFPDGEPISAGGSA [r15_150_TrROS] | 2.12 ± 0.067 kcal/mol | 2.55 ± 0.11 kcal/mol | 2.88 ± 0.046 kcal/mol
SAGGSDKLYIRNPDHTIEIDEVKEPPDGEKYVRIRHEPPDGKEKEHEFPPDELADKFGLPPDNIEISAGGSA [r2_262_TrROS] | 0.32 ± 0.35 kcal/mol | -0.101 ± 0.56 kcal/mol | -0.217 ± 0.79 kcal/mol
SAGGSDNKPFRIEPTGVDSVEANPDGMVEIEWRFRLPNGYVLTWRETINPKNGKPSIEPTLVPPGESAGGSA [r2_321_TrROS] | 0.816 ± 0.079 kcal/mol | 0.902 ± 0.085 kcal/mol | 0.722 ± 0.18 kcal/mol
SAGGSDSLVTLERVEVTELEEFEEDDRPFLVKRTYTIEKVVTTDPKTGKVTTETTVTSKEEVIPPELNSAGG [r13_810_JUSTAS] | 0.807 ± 0.031 kcal/mol | 0.874 ± 0.084 kcal/mol | 0.801 ± 0.18 kcal/mol
SAGGSDVKTYTFVGIDPETGELVETTFRVTPLVPPVPVSVSVSLTLDVDPDGNLHLSLSVSVELGGSAGGSA [r2_326_TrMRF] | 3.21 ± 0.11 kcal/mol | 4.37 ± 0.12 kcal/mol | 4.74 ± 0.081 kcal/mol
SAGGSEAEIVSVEFDEETGTISVLVRNSDGSLYRAEIRFERLPDGSLLVTIKVTLPDGKELTFVFPSAGGSA [r2_488_TrROS_Hall] | 3.94 ± 0.11 kcal/mol | 5.78 ± 0.19 kcal/mol | 5.77 ± 0.085 kcal/mol
SAGGSEGMTVTELVKPPDSDEVLYVATDSAGNTFTLPGSLVKEALENGKTVEAPRPDGTAATLVLRSAGGSA [r2_301_JUSTAS] | 2.25 ± 0.4 kcal/mol | 3.1 ± 0.34 kcal/mol | 3.5 ± 0.2 kcal/mol
